Test results from paper PMC8108516 (Molecular Biology of the Cell, 2021).

How the values were obtained:
Test in all cases: pull-down
[1] = target: T1, GST tagged Pom1^aa605-1087 (S. pombe, UniProt Q09690 605-1087)
T1 sequence (looked up): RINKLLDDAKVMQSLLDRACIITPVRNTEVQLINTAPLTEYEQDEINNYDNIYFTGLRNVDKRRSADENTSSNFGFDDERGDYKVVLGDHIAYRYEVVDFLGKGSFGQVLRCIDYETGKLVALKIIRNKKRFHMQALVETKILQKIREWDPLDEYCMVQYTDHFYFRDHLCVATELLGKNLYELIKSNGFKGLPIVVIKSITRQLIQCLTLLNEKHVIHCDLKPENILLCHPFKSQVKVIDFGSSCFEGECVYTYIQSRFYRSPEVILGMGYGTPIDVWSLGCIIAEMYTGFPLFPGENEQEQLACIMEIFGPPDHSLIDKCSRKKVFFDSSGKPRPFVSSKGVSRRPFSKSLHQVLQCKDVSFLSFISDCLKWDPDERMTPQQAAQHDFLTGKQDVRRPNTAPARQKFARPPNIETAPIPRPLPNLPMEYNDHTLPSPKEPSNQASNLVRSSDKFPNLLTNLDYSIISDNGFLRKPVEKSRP

GST tagged Pom1^FL = target: T2, GST tagged Pom1^FL (S. pombe, UniProt Q09690 1-1087)
T2 sequence (looked up): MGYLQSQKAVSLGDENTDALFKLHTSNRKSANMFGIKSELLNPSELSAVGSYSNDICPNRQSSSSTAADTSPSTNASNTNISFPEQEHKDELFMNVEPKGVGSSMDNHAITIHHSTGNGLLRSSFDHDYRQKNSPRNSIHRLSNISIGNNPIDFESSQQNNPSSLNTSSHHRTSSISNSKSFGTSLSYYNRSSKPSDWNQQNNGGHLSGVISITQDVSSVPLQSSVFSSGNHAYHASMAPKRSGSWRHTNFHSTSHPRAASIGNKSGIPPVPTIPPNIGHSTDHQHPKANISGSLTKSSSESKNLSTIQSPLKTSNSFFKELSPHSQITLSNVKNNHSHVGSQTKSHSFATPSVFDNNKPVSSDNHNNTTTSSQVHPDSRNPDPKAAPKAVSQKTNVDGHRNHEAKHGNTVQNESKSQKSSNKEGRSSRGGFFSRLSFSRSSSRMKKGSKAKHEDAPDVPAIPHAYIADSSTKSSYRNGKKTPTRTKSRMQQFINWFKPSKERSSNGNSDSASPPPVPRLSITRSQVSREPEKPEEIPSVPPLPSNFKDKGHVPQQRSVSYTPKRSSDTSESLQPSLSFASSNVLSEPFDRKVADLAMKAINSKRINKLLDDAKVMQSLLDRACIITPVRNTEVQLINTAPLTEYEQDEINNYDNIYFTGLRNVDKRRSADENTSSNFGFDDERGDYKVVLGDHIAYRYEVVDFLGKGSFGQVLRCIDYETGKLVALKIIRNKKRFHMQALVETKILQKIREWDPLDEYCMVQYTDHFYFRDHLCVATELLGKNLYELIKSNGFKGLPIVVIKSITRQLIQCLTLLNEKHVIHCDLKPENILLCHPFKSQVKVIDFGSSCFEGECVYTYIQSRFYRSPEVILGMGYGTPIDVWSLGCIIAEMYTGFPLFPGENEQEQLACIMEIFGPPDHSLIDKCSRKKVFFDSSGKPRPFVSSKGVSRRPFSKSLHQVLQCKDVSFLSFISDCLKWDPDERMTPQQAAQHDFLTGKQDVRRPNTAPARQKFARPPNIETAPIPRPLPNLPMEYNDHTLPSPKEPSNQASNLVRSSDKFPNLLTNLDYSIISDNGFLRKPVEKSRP

GST tagged Pom1^Δaa305N = target: T3, GST tagged Pom1^Δaa305N (S. pombe, UniProt Q09690 306-1087)
T3 sequence (looked up): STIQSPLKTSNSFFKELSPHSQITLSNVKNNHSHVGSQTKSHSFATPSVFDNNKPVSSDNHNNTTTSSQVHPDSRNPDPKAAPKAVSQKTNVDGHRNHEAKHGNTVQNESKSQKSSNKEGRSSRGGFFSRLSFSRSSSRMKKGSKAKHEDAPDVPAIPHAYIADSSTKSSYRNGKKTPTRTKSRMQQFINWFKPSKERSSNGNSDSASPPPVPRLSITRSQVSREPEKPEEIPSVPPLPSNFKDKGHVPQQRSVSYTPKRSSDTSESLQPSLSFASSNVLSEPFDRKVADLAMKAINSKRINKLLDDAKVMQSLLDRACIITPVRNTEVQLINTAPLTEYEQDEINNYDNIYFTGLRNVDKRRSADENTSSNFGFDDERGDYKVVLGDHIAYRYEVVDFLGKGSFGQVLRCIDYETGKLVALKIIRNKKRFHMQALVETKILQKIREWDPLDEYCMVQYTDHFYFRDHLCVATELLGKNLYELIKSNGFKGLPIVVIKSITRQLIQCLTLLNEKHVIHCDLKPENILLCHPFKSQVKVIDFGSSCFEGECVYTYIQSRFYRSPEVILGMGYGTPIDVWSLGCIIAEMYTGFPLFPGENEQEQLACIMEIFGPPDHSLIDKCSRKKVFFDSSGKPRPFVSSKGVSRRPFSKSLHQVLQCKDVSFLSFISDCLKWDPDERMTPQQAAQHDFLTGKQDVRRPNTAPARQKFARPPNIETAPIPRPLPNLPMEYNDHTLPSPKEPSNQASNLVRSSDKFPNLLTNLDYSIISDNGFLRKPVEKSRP

Measured: binding result

B1: MBP-tagged Ptc1^FL (enzyme, S. pombe, UniProt P40371 1-347, looked up)
chain: MKGSHPNAGSLLEPLHKLNPFSENSTSGHRKNASDHSADGETRPIAIEMKDSKGNTVPVGNSRPSKASNWLAGLMEDKNQRWRRSMEDTHICLYDFGGNQDDGFVAVYDGHAGIQASDYCQKNLHKVLLEKVRNEPDRLVTDLMDETFVEVNSKIAKATHNDICGCTAAVAFFRYEKNRTRRVLYTANAGDARIVLCRDGKAIRLSYDHKGSDANESRRVTQLGGLMVQNRINGVLAVTRALGDTYLKELVSAHPFTTETRIWNGHDEFFIIACDGLWDVVSDQEAVDFVRNFVSPREAAVRLVEFALKRLSTDNITCIVVNLTRNPGDLDDSGLTADNDSYSNDYY
binds: all assays above
